Biological target: T1, human α-CGRP 1-36-COOH (human)
T1 construct: free C-terminal carboxyl, not amidated; also called 1-36 (not amidated at the C-terminus)
T1 peptide: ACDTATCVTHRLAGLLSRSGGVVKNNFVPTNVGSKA
Assay: Biacore competition, 50 nM G1 Fab with 10 µM peptide, read on human α-CGRP chip
Source text: Y axis represents percentage of binding blocked by the presence of the competing peptide compared with the binding in the absence of the competing peptide. […]

percentage of binding blocked by competing peptide: ~40%
B1: antibody G1 Fab fragment (Fab, V domains shown)
VH: EVQLVESGGGLVQPGGSLRLSCAASGFTFSNYWISWVRQAPGKGLEWVAEIRSESDASATHYAEAVKGRFTISRDNAKNSLYLQMNSLRAEDTAVYYCLAYFDYGLAIQNYWGQGTLVTVSS
VL: EIVLTQSPATLSLSPGERATLSCKASKRVTTYVSWYQQKPGQAPRLLIYGASNRYLGIPARFSGSGSGTDFTLTISSLEPEDFAVYYCSQSYNYPYTFGQGTKLEIK

— US20200148761A1 (Teva, published 2020)
